Assay: soluble fraction after stress (log2 fold change); higher = more stays soluble; pooled small domains, quantitative proteomics
Conditions: stress: 50 degC
Method in brief: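 Pooled custom libraries of small protein domains were measured in a high-throughput format, with quantitative proteomics as the read-out. Each library was stressed at 50°C. Aggregation propensity is given as the base-two logarithm of the fold change in how much of each protein stays soluble after the stress. Higher values mean a larger share of the protein remains in solution.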

| Sequence | soluble fraction (log2) |
| --- | --- |
| HMKRLPFSFAKRFGVVVEDGEPPIVHHRDGASAETLLEVRRRLGQVFTLQRHDAEAFERLLTQAYQR | -0.383 |
| HMTNQKEITYSQFRQELDQGSIKSVSLQGSRIRGTYVDGGISFRTLAPNDADLIPSLMKHKVDIQVLPED | 0.247 |
| HMELDREALSDGLRRLSQLLAEDDIESRTLFRELAPGLKEQLGDDAVEKLAGHISRYEFEQAGALLATSG | -0.0341 |
| HMIDIDTILKKYKPGRRDELIPLMQEIQEVYGHLSEEAVVKIGTYVGLSTTKIYGLATFYDQFRF | -1.24 |
| HMPSLSPDETVVVDALRQQNDMQINMISVKTNLPIARLSAILFEMELKGVLKPLAGGVYHLL | -0.316 |
| HMNSHLEEGRHGLQIGDPGIVRARIESDPEGETDMPVVVIDGRNISWNEFGRMVATYTGFQFKLEM | -0.515 |
| HMSTVTGLINYLSSGLIKGVGEATARKLVDHFGLDVLDIIQFNPQRLLEVDGIGEARAEMIASSFSEQK | -0.399 |
| HMSRREEALIALAQRVARQVARTKQPVTLEPMPANERRVIHVALRDNPDVETRSSGEGDQRRVTVYPRQ | 0.05 |
| HMLTRQNFHGIKLPTIHEYIDLLNSRVNANIDKTNNWQSSVSHLRTYLNSHNINAVSKESINNYIDERLN | -0.572 |
| HMTSNEKARNAASAERRADIVAAARELYEEQGLSKTSVQDITNRMGVARSLFYHYFPDKEAVTSAVLDDYV | 0.244 |
| HMKADTSPEAQKKIIAAFEPYSVNKDQIEKLIQRRIDSITPAQVIRLRKILASLKDGMSSPEDWFE | 0.0361 |
| HMITFRINQQSQVGLRLDKFIVQQMPDYSRTRIQSWIKTKNILVNGEGKKSGYALEFDDLVEVTIPE | -2.04 |
| HMGMIRFSKEEQMLMMLYSPGSRLGLIAELESMKLQLNSRERKLRNLAESVLKKLEQITDEEFMQFDF | -1.31 |
| HMKQISQNIHRLRKEKGMSQEQLAQALHVTRQTVSAWERGIAQPSLDVLGQIAQLLGVEPERLLYGE | 0.153 |
| HMRTAFPQLTERELEILDLIAAGRNNAQIASALYLAPKTVRNNVSNILAKLQATDRAEAIIRARDAGLGG | -0.0599 |
| HMEIHIGSLIKEKMEERGLSVSDFAHALHYERTNIYKIFKRSSIDVDLLLRISEVLAYDFLREVYL | -2.63 |
| HMEISTENESFSNGLLEHPHYTRPPVWEDLKIPAVLMSGHHGKVAEWRKQQSEALTQERRPDLWEAFG | -0.0409 |
| HMGLSAALKARLREVINEMAKSGAQPKLREWALAEGIGNFAKPETPEAAEAVIAKAQELLAEA | 0.547 |
| HMVNHVGITVSNLERSIQFYEALTGKKIANQDTIGGKRMAQTQGLADTLIKYANLHLDNLNIDLLEYVE | -0.386 |
| HMNLRLKEVLDEKNMSLVTLSEKTGIEKGNLSAISNNKKNPTVETLSKIAKALQISLAELFESPP | 0.303 |
| HMREIKSNEILLEVENLKNSEFFNDINFNIKKGEIVGFSGLIGAGRTELALTLFGYYKAESGKVIQ | 0.061 |
| HMNNQKATAVKVASGIVNLRSGPATSYETLDTVATGETLSVLAEKDGWFQVSRAGRTGWVAGWVVDVIRE | -0.0645 |
| HMSIITLFQEINAAVAEATGGRVPESVVQNFILGKDVVIPEDVKEIIISKLKAFATDIEGMLEESGFD | -0.909 |
| HMFEKIDINFADIHQLKGLPLNSEQINSIIEYRNQNGFIENIYDLKNVNGISIDKVHELKSYIFIIDV | -2.42 |
| HMPYEHQRAVGALIRRLREQQGWSQRALADWVHMDQSAVSRVETGQRSVTAEELGRFADALHVSTDALVR | -0.291 |

| Sequence | soluble fraction (log2) |
| --- | --- |
| HMVQLAEGERYRRIQEANDFINRQQWPGKAAMGRLKDTEKAQYNLWLDYLDALEAVDTSSAPKINWPVPPE | 0.167 |
| HMTLDVALSKEIKYMLKEEHYLPGDKLPSERKLAELFHVQRLTVRGALNLLLQDKTIISKPRSGYYVAPKR | -3.1 |
| HMVKDYIQVTVNKEPVILKGKKDYIFIDIFNYIEFDLTIPKGSLYLLLNGKNAGYHDKLLDGDVIELGW | -1.72 |
| HMLNEWIDYIDEHIKEELTAKNLATVFGYSERHFRNVFQIYYDIKLNDYIRRRKLYFAAQELKKG | -1.17 |
| HMSEATTVNYKYAVTISDLRIRKGPGTNYGSVGYTGKGVFTIVAEKGGWGKLKSGAGWISLNSKYGHKVS | -1.45 |
| HMSEQYEQIQLALKTLTQDEQDIVRLVVVEGASLRTAGKNLGVSAMTIQRRLKRALARLRDLLAS | -0.948 |
| HMPSKKHARWIELEARKFMADNEDAVSDLHELRTRAANFAALKTSTLPVDQHRAIVAGFVARVNELGRRI | -0.631 |
| HMVADLSGVGDKDIIVDQFIYHEVLPKETIYSIVKSFNVTSEDLNKNNPFLRANGLRIGQVIRIPLKI | -1.08 |
| HMRFNIGNVIEHYKLNTEDLAKVLFPTVKYPKQAFDRVLKGEANLDVIQLERLANHIGVLVTDLF | -0.196 |
| HMNIGSKLRYLIEEANITQRQLADALHISPSALNGYINQGKEPDYATLVRIADYFHTSTDYLLGHSNIR | -0.00171 |
| HMARSKSRQSSVLESVPGLGPSRRRNLLRHFGGLQGVVKAGVEDLMAVRGISRTLAETVYDHLHPGS | -0.289 |
| HMAQTEIPYSEFLREVGNGQIKSVIIEGSEITGFYKTSGTSFNVVAPDDPKLVERLMDQGVEVRAQPT | 0.0919 |
| HMSGRVPTADDIAVGMKVYVPRLGGTGTVVTEPVRDKVVIQVGSLRLHAEVAELLLPDEHGRIQVPR | 0.00655 |
| HMHAGMKSWTIQYEKSPIYGSFLMYKDGNIYIQKEDNVVVHFPLDRFSQNDQAILKSRIEKIDQINKSS | -0.0347 |
| HMAEATATVTASEMVVRSGPSSSYSVLGSLEKGTVVTVLAASDGIAKISYKGNTGYARIVDMELNSA | -0.0414 |
| HMETGLSNYEFKRIREQAEALLSDGQVRRINDLVDSIKNENAEKVIRVIRFLIDTEELILEDDRVSAKKS | -0.0558 |
| HMGIVYGVIKENWDQDHPGMVKVEILQGESGKNVSDWIPVMSPYAGKEFGAYALPEIGTQAVVAFE | -0.0355 |
| HMLDIVVGSTGYALGEITDHSGTVRVNGDTWTARLVDAAGPVEDGDRVEVYAVEGTTLLVYPS | -0.396 |
| HMLERKFGTSLEIKSLSKFLIENNYKKNAKYLNKLIQVLGTRSENRIIKTFFKQFPEIENIFRNQL | -0.846 |
| HMLPSWPGVSEFEVARLLRRGRARGSLTLDEVIDVVRDAELTSELIAGIRSSLRAEGIDFEET | -0.475 |
| HMGLKQADFEELASRIFTVLEEKSMTPAEIVRKLNLEPDRISIVIQYLLDEGKLNIKDGFINNSA | -0.107 |
| HMTSISMDEKVVLGWHQVTTGAANSGMDKVVSNTSGLNVISPTWFKLSDNKGNYISIASKDYVDAAHKKGL | -0.232 |
| HMYAGTVTQVKNNKVMLEFDGETVNVGDQFFILNSDGKKVAIVEITAAKNKKALANVLKGKAVVDGTTQAK | -0.111 |
| HMAAEIGSGVVDAYDLRLRSQPSTDAETIIYLDNGAKLSVQEDLGDWYKVVSGTYTGYVSAEYVAYTPSPE | -1.13 |
| HMESIGANIRRLRKERNMSQDELARKAFTNRSNINRYESGKMVPSADTTEKIEEALGVPAGTLAQ | 0.132 |

| Sequence | soluble fraction (log2) |
| --- | --- |
| HMQYKVMDVTVDGNPVIEFQNLNSKIKWIENNPDAIIQNIKTSSFEADQKRIVGTSRGPFWIVIKPDF | -0.144 |
| HMSVLRLGNRGPDVRKLQLLLNSTLVPSPQLTVDGDFGKRTEQAVVTFQQMRGLPQDGIVGQRTWALLGQT | -0.518 |
| HMDHKSALQELLAPRGLQPSYRLVEEAGPAHARVFTSEVSVDGVARGSGTGTTIKMSEQAAAREALASLG | 0.223 |
| HMLDLYYDSEDKLLIDMGTGEVIRSFADDKRSLVFDAQAKILFDEDSGDIVYSSYFDKLITDKLASKS | -0.0393 |
| HMEMNDFETLRDMYLTGKIWNVGDIVEANGVRGKVIRKGTNYLSFVDEDNKVHKAWLYDIEE | -0.197 |
| HMSLDLNENEKTIFDIIQNKKTIRLSELKIEAGLSNKGWDKAMKSLTKQGLAKVVKTEDQLTVKLL | -0.0993 |
| HMAVVEVATTTATEYKVEKGHHFKVGDFVMFKTGAKSYAITAIDTTSPIFDKITVGTTLGEAIPVGGTLM | -1.38 |
| HMTQEQKQQISDQLRAYVEQKGSGNKAAASMNGVSSATISKVLAGKWETISEDMWRSIAAQTGH | 0.106 |
| HMTVVPNIVNQPEAAGTNLLISSNLKPGNRAVQYSDTVKAGDIISQSPEPGAQATLGGKVDYVISQGPAPT | 0.165 |
| HMQNPDHLLALAAAAQAAIELGRPDEAEAYYRHLVEVYGVEMASQKPEYLDHSGITNDLRNVAEGFLVG | -0.746 |
| HMFQPEQISKLNELETLVLDFIIKSPDKVQKATIRSLATQLHVSTTTIVRMSTKLGFNGWSELKFFLKNQS | -2.15 |
| HMQNEVMPYSTFLSEVNSGNVTKVKIDHEQLTGTLKSGKQFTTYILDAATLPSIVAEKGVEVEVVPP | 0.357 |
| HMNDFVTVPDLQGIFYSEAIKKIDKMGLKEGSIQFVNQDKFLPNTVLNQNPKEGTKVSQDSPINLIIS | 0.0352 |
| HMDIPITFEQLPAKAQAFVKQYFKIEEIASVWRDDDIHDQDYKVYFNDGSEIEFYANGDWEEV | -0.62 |
| HMQQLTDRELEVLRLLAAGLSNNKIGEKLYISATTAKFHVSNIMRKLEVSRRAEAVYAASKRGL | -2 |
| HMGAKVFTVPNLIGKYAIEAGIILKKEGLSEGEVKEENSDKYAAGQIIDQYPAADSPAKENDKINYVVSIG | 0.00836 |
| HMYGLSFLIGFTVVDRTYGDIGKVTAIDDSTVNTLMAVGDRLIPAQEAFITKIDNTKKIIYTQLPEGLL | 0.177 |
| HMPISQGATVKHNANMRKGASTKYKVTGVLQEGEEVKILSQSNGWYKIQNSDNEKGWTYNTHINASDK | 0.0951 |
| HMGRYVIQIASFSSKNNAIEAADKLGGFVVQSGRFYRVRTGPFATRGEADAALASARRVGYRDAFIDTS | -0.531 |
| HMKLVELVGSPKQIAWAEDIRKNMISYLSALVRKYEAENRPARAEKRAKDMEILSNIKEASWFIENRS | -0.661 |
| HMLVNNSTIETVIDFANVKFGMELTKDQVSEQLRNLSFSQTLKLINSMKADDNDAFSEIIDL | -0.672 |
| HMSDAKKRAFSKDEILYSLKNRPFTSFDIESLFDDESKKTFIGLLDKGEISEKKVAGTIFYYLR | -0.0659 |
| HMTKVKIDRLFSIVQMLVNRKSVTAKELADYFNVSVRTIYRDIEILSANGIPIYATQGKGGGISILEN | -1.05 |
| HMYSYSGSVSNTHDVPVSVVLKDAEGVAIASWDLQAKQSLNISAKDIATSSGTIEITGDGVSETKTVTFTK | 0.391 |
| HMSYQSYDKVVGDTFFEANLKAESKFGKGNFEIISTRRVKHPIYLGFGHKELVELTIGIHDP | -0.308 |
